This passage reports Ki results from patent publication US6060451, “Thrombin inhibitors based on the amino acid sequence of hirudin” (The National Research Council of Canada, dated 2000).

This test addresses human α-thrombin (human, UniProt P00734). Description: inhibition of thrombin-mediated hydrolysis of Tosyl-Gly-Pro-Arg-AMC (fluorogenic amidolytic assay).

Non-standard residues stand in square brackets, D forms with d.

Ac-[dF]PR[(CH2)4CO][NH‑CH2‑CH:CH‑CH2‑CO]DFEPIPL-OH [P183 (SEQ ID NO:5)]: the affinity corresponds to a Ki of 300 nM.
Molecule Ac-[dF]PR[(CH2)4CO][NH‑CH2‑CH:CH‑CH2‑CO][NH‑CH2‑CH:CH‑CH2‑CO]DFEPIPL-OH [P184 (SEQ ID NO:6) (BCH-1710)] showed an inhibition constant (Ki) of 3.5 nM.
Regarding Ac-[dF]PR[(CH2)4CO][NH‑CH2‑CH:CH‑CH2‑CO][NH‑CH2‑CH:CH‑CH2‑CO][NH‑CH2‑CH:CH‑CH2‑CO]DFEPIPL-OH [P185 (SEQ ID NO:7)], affinity was put at a Ki of 3.2 nM.
